Results from paper PMC5753033.

Columns and labels:
[1] = target: Alexa488-labeled WAVE1 PWCA (FRET donor construct) (human) (UniProt Q92558); test: FRET or BRET; 7.5 nM Alexa488-labeled WAVE1 variant titrated with LatB-stabilized Atto540Q-actin; donor quenching; room temperature; 20 mM HEPES pH 7.0, 100 mM KCl, 1.5 mM MgCl2, 1 mM EGTA, 1 mM ATP; single site binding curve
[2] = target: Alexa488-labeled WAVE1 WCA (human); test: as above
[3] = target: Alexa488-labeled WAVE1 PWCA (FRET donor construct) (human) (UniProt Q92558); test: FRET or BRET; competition: 7.5 nM Alexa488-WAVE1 variant premixed with 175 nM LatB-stabilized Atto540Q-actin, profilin titrated; room temperature; 20 mM HEPES pH 7.0, 100 mM KCl
WAVE1 PRD[B] (human) = WAVE1 PRD[B] (human) (UniProt Q92558); test: AUC; sedimentation equilibrium; dye-labeled WAVE1 PRD variant with an excess of profilin (for PRD[B] 91.2, 44.8 and 21.7 μM); three speeds; 20°C; 25 mM HEPES pH 7.0, 50 mM KCl, 1 mM MgCl2, 1 mM EGTA, 0.5 mM TCEP; two-site independent model with one site fixed to the non-specific affinity
WAVE1 PRD[E] (human) = WAVE1 PRD[E] (human) (UniProt Q92558); test: as above
WAVE1 PRD[A] (human) = WAVE1 PRD[A] (human) (UniProt Q92558); test: as above
WAVE1 PRD[D] (human) = WAVE1 PRD[D] (human) (UniProt Q92558); test: as above
WAVE1 PRD[C] (human) = WAVE1 PRD[C] (human) (UniProt Q92558); test: as above
WAVE1 PRD[F] (human) = WAVE1 PRD[F] (human) (UniProt Q92558); test: as above

| Kd (WAVE1 PRD[B] (human)) | Kd (WAVE1 PRD[E] (human)) | Kd (WAVE1 PRD[A] (human)) | Kd (WAVE1 PRD[D] (human)) | Kd (WAVE1 PRD[C] (human)) | Kd (WAVE1 PRD[F] (human)) | Substance | Kd [1] | Kd [2] | fraction of WH2 domains that contact actin at high profilin [3] | residual fluorescence quenching at the highest profilin concentrations [3] |
| --- | --- | --- | --- | --- | --- | --- | --- | --- | --- | --- |
|  |  |  |  |  |  | Atto540Q-labeled actin monomers (Acanthamoeba castellanii), Latrunculin B-stabilized (natural protein) | 0.021 µM | 0.061 µM | > 35% | > 30% |
| 2 µM | > 10 µM | > 10 µM | > 10 µM | > 10 µM | 4 µM | Human profilin 1 (from UniProt P07737 1-140) (natural protein) |  |  |  |  |
